Tests used:
[1] = system: P. acnes surface proteins; experiment: Binding of biotinylated ECM ligands to immobilized P. acnes surface proteins; design: species or system Propionibacterium acnes
Method: FIG. 2: Binding of P. acnes surface protein to purified human fibrinogen. (A) P. acnes surface proteins (0.8 to 50 μg/ml) were immobilized onto a 96-well polystyrene plate and probed with biotinylated fibrinogen (0.1 μg/ml) for 2 h at room temperature. (B) P. acnes surface proteins (25 μg/ml) were immobilized onto a 96-well polystyrene plate and probed with various concentrations of biotinylated fibrinogen ranging from 0.1 to 16 μg/ml for 2 h at room temperature. Bound biotinylated fibrinogen were detected with HRP-streptavidine as described in Materials and Methods.
To characterize the interaction between P. acnes and ligands, we used biotinylated molecules in quantitative and qualitative assays. In a first set of assays, ECM ligands (fibrinogen, collagens I, IV, VI and VIII) were used as labelled proteins with biotin. In a second set of assays, P. acnes surface proteins (total extract and purified Pfg) were biotinylated. For quantitative analysis, unlabeled protein were diluted into 50 mM carbonate-bicarbonate, pH 9.6 buffer to yield a protein concentration ranging from 0.01 to 50 μg/ml, and then immobilized to 96-well polystyrene plates at 4° C. overnight. […] After washing, bound peroxidase was detected using the chromogenic peroxidase substrate ABTS. […] Binding activity was detected by incubating the membranes with 20 ml of PBT containing biotinylated proteins (0.1 μg/ml) for 2 h at room temperature followed by three washes with PBT. Bound biotinylated proteins were detected by incubating the membrane with peroxidase conjugated to streptavidin (0.5 μg/ml in PBT) for 1 h at room temperature. After washing, bound peroxidase activity was detected using 3,3′-diaminobenzidine in the presence of CoCl2 and H2O2 (Harlow and Lane, 1988).
In order to identify P. acnes surface protein recognized by ECM ligands, we used the most commons ECM proteins recognize by skin related bacteria like collagens and fibrinogen. […] To identify surface proteins, P. acnes total heat protein extracts were electrophoretically separated and detected by silver staining (FIG. 1B). […]

ThP1 cells = experiment: O2°− production by P. acnes-stimulated ThP1; format: cell-based, human; details: 0.87 to 7 μM
Method: For experiences of stimulation with P. acnes, cells were incubated with the P. acnes suspension adjusted at the appropriate concentration, pre-treated for 1 h at 37° C. or not with fibrinogen recombinant peptides Fg1 and Fg2 at the concentrations 0.87, 1.75, 3.5 or 7 μM for the desired period of time at 37° C. in 5% CO2.
All cells lines (5·10^4 to 10^5 cells/well) were seeded in 96-well plates (Corning Costar, Brumath, France) and treated as previously described. After stimulation, cells were washed three times in PBS and incubated with 100 μl per wells of 5 μM DHE (for determination of O2^●−) or 5 μM H2-DCFDA (for determination of H2O2) for 30 min as described previously and fluorescence intensity was recorded every hour over a period of 5 h. Fluorescence excitation/emission maxima were for DHE: 480/610 nm and for H2-DCFDA: 507/525 nm. At the end of the experiment, the number of adherent cells was evaluated by the crystal violet assay as described below. O2^●−, and H2O2 were assayed by spectrofluorimetry on a Fusion spectrofluorimeter (PackardBell, Paris, France). Levels of ROS were calculated in each sample as follows: reactive oxygen species rate (arbitrary units/min/10^6 cells)=(fluorescence intensity [arbitrary units] at T5h—fluorescence intensity [arbitrary units] at To/300 minutes/number of adherent cells as measured by the crystal violet assay, and were expressed as arbitrary unit (A.U.).
To assess the efficacy of Fg1 recombinant peptide, the production of O2^∘− and H2O2 by HaCaT cells NHDK, THP-1, MRC5 and HDF stimulated by pretreated P. acnes strains 6919, RON and PIE was measured. The amount of ROS produced was compared to that produced by the stimulated cells with untreated bacteria. Production baseline was obtained by measuring ROS on unstimulated cells. The production of IL-1ß, IL-8, IL-12 and TNF-α was also measured in all conditions cited above. The measurement of the production of ROS is performed by spectrofluorimetry in the presence of specific fluorochromes directly on the monolayer cell. Measurement of cytokine production was performed in parallel on the cell culture supernatant.
Two sets of experiments were implemented: 1) The cells were stimulated (18 h at 37° C.) by P. acnes strains previously pretreated with Fg1 and Fg2 peptides at the final concentrations ranging from 0.87 to 7 μM for 1 h at 37° C.; and 2) The cells were pretreated first with Fg1 and Fg2 peptides at the final concentrations ranging from 0.87 to 7 μM for 24 h at 37° C. and stimulated (18 h at 37° C.) by P. acnes strains.

Molecule	Binding activity of biotinylated ligand to immobilized P. acnes total surface protein ([1]; 25 μg/ml of protein immobilized per well, various quantity of biotinylated Fg and Collagen I)	P. acnes protein extract concentration at which the binding activity for fibrinogen reaches a plateau ([1]; several concentrations of protein extract immobilized, biotinylated fibrinogen 0.1 μg/ml)	Inhibition of Superoxide anion (O2°−) production (ThP1 cells; P. acnes 6919, set I, bacteria first pretreated)	Inhibition of Superoxide anion (O2°−) production (ThP1 cells; P. acnes 6919, set II, cells first pretreated)	Inhibition of Superoxide anion (O2°−) production (ThP1 cells; P. acnes PIE, set I, bacteria first pretreated)	Inhibition of Superoxide anion (O2°−) production (ThP1 cells; P. acnes PIE, set II, cells first pretreated)	Inhibition of Superoxide anion (O2°−) production (ThP1 cells; P. acnes RON, set I, bacteria first pretreated)	Inhibition of Superoxide anion (O2°−) production (ThP1 cells; P. acnes RON, set II, cells first pretreated)
human fibrinogen: purified commercial human fibrinogen (Sigma), glycoprotein hexamer of Aα, Bß and γ chains	strong binding activity	about 6.25 μg/ml	–	–	–	–	–	–
MKRMVSWSFHKLKTMKHLLLLLLCVFLVKSQGVNDNEEGFFSARGHRPLDKKREEAPSLRPAPPPISGGGYRARPAKAAATQKKVERKAPDAGGCLHADPDLGVLC (protein, GST fusion; fragment Fg1, fragment of Bß chain of human fibrinogen having 106 amino acids; recombinant GST-fused peptide expressed in E. coli) MKRMVSWSFHKLKTMKHLLLLLLCVFLVKSQGVNDNEEGFFSARGHRPLDKKREEAPSLRPAPPPISGGGRARPAKAAATQKKVERKAPDAGGCLHADPDLGVLCMKRMVSWSFHKLKTMKHLLLLLLCVFLVKSQGVNDNEEGFFSARGHRPLDKKREEAPSLRPAPPPISGGGYRARPAKAAATQKKVERKAPDAGGCLHADPDLGVLC	–	–	pos	pos	pos	pos	pos	pos
